# According to PMC10309634, “Computer simulation approach to the identification of visfatin-derived angiogenic peptides” (PLOS ONE, 2023):
# B1: visfatin: Commercial recombinant mouse visfatin (Adipogen Life Science), positive control (protein, UniProt Q99KQ4 1-491, looked up)
# Nicotinamide …: MNAAAEAEFNILLATDSYKVTHYKQYPPNTSKVYSYFECREKKTENSKVRKVKYEETVFYGLQYILNKYLKGKVVTKEKIQEAKEVYREHFQDDVFNERGWNYILEKYDGHLPIEVKAVPEGSVIPRGNVLFTVENTDPECYWLTNWIETILVQSWYPITVATNSREQKKILAKYLLETSGNLDGLEYKLHDFGYRGVSSQETAGIGASAHLVNFKGTDTVAGIALIKKYYGTKDPVPGYSVPAAEHSTITAWGKDHEKDAFEHIVTQFSSVPVSVVSDSYDIYNACEKIWGEDLRHLIVSRSTEAPLIIRPDSGNPLDTVLKVLDILGKKFPVTENSKGYKLLPPYLRVIQGDGVDINTLQEIVEGMKQKKWSIENVSFGSGGALLQKLTRDLLNCSFKCSYVVTNGLGVNVFKDPVADPNKRSKKGRLSLHRTPAGNFVTLEEGKGDLEEYGHDLLHTVFKNGKVTKSYSFDEVRKNAQLNIEQDVAPH
# System: HUVECs
# Assay: In vitro tube formation assay on Matrigel
# Assay type: cell-based, human
# Settings: positive controls, 4 hours on Matrigel, compared to the control group
# Procedure: HUVECs (2×10^4 cells/well) were seeded on a layer of polymerized Matrigel and treated with or without visfatin-derived peptides. The Matrigel culture was incubated at 37°C in the EGM supplemented with EGM-Supplement Mix® containing 1% FBS. After 4 hours, changes in the cell morphology were observed using a phase-contrast microscope and photographed at 40× magnification. Each sample was assayed in duplicate, and independent experiments were repeated three times. Angiogenesis was analyzed with ImageJ software using an angiogenesis analyzer (Bethesda, MD, USA).
molecule,measurement,value
B1,number of meshes,not significantly different
